In US20200399369A1 (Sanofi, published 2020):

T1: Human CD3 (human)
T1 chain: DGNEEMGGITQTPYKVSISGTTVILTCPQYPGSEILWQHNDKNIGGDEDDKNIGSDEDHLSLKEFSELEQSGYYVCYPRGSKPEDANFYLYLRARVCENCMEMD

B1: CD38VH1/CD28sup x CD3mid_ENLQ DKTHT IgG4 FALA (other)
light 1: DIVMTQTPLSLSVTPGQPASISCKSSQSLVHENLQTYLSWYLQKPGQSPQSLIYKVSNRFSGVPDRFSGSGSGTDFTLKISRVEAEDVGVYYCGQGTQYPFTFGSGTKVEIKDKTHTDIQMTQSPSSLSASVGDRVTITCQASQNIYVWLNWYQQKPGKAPKLLIYKASNLHTGVPSRFSGSGSGTDFTLTISSLQPEDIATYYCQQGQTYPYTFGQGTKLEIKDKTHTRTVAAPSVFIFPPSDEQLKSGTASVVCLLNNFYPREAKVQWKVDNALQSGNSQESVTEQDSKDSTYSLSSTLTLSKADYEKHKVYACEVTHQGLSSPVTKSFNRGEC
heavy 1: QVQLVQSGAEVVKPGASVKVSCKASGYTFTSYYIHWVRQAPGQGLEWIGSIYPGNVNTNYAQKFQGRATLTVDTSISTAYMELSRLRSDDTAVYYCTRSHYGLDWNFDVWGKGTTVTVSSDKTHTQVQLVESGGGVVQPGRSLRLSCAASGFTFTKAWMHWVRQAPGKQLEWVAQIKDKSNSYATYYADSVKGRFTISRDDSKNTLYLQMNSLRAEDTAVYYCRGVYYALSPFDYWGQGTLVTVSSDKTHTASTKGPSVFPLAPCSRSTSESTAALGCLVKDYFPEPVTVSWNSGALTSGVHTFPAVLQSSGLYSLSSVVTVPSSSLGTKTYTCNVDHKPSNTKVDKRVESKYGPPCPPCPAPEAAGGPSVFLFPPKPKDTLMISRTPEVTCVVVDVSQEDPEVQFNWYVDGVEVHNAKTKPREEQFNSTYRVVSVLTVLHQDWLNGKEYKCKVSNKGLPSSIEKTISKAKGQPREPQVCTLPPSQEEMTKNQVSLSCAVKGFYPSDIAVEWESNGQPENNYKTTPPVLDSDGSFFLVSKLTVDKSRWQEGNVFSCSVMHEALHNHYTQKSLSLSLG
heavy 2: QVQLVQSGAEVVKPGASVKVSCKASGYTFTSYAMHWVKEAPGQRLEWIGYIYPGQGGTNYNQKFQGRATLTADTSASTAYMELSSLRSEDTAVYFCARTGGLRRAYFTYWGQGTLVTVSSASTKGPSVFPLAPCSRSTSESTAALGCLVKDYFPEPVTVSWNSGALTSGVHTFPAVLQSSGLYSLSSVVTVPSSSLGTKTYTCNVDHKPSNTKVDKRVESKYGPPCPPCPAPEAAGGPSVFLFPPKPKDTLMISRTPEVTCVVVDVSQEDPEVQFNWYVDGVEVHNAKTKPREEQFNSTYRVVSVLTVLHQDWLNGKEYKCKVSNKGLPSSIEKTISKAKGQPREPQVYTLPPCQEEMTKNQVSLWCLVKGFYPSDIAVEWESNGQPENNYKTTPPVLDSDGSFFLYSKLTVDKSRWQEGNVFSCSVMHEALHNHYTQKSLSLSLG
light 2: DIVLTQSPATLSLSPGERATISCRASQSVSSYGQGFMHWYQQKPGQPPRLLIYGASSRATGIPARFSGSGSGTDFTLTISPLEPEDFAVYYCQQNKEDPWTFGGGTKLEIKRTVAAPSVFIFPPSDEQLKSGTASVVCLLNNFYPREAKVQWKVDNALQSGNSQESVTEQDSKDSTYSLSSTLTLSKADYEKHKVYACEVTHQGLSSPVTKSFNRGEC
notes: Trispecific antibody; also called BP # 1
B2: CD38hhy1370/CD28sup x CD3mid_ENLQ DKTHT IgG4 FALA (other)
light 1: B1 light 1
heavy 1: B1 heavy 1
heavy 2: QVQLVESGGGVVQPGRSLRLSCAASGFTFSSYGMHWVRQAPGKGLEWVAVIWYDGSNKYYADSVKGRFTISGDNSKNTLYLQMNSLRAEDTAVYYCARMFRGAFDYWGQGTLVTVSSASTKGPSVFPLAPCSRSTSESTAALGCLVKDYFPEPVTVSWNSGALTSGVHTFPAVLQSSGLYSLSSVVTVPSSSLGTKTYTCNVDHKPSNTKVDKRVESKYGPPCPPCPAPEAAGGPSVFLFPPKPKDTLMISRTPEVTCVVVDVSQEDPEVQFNWYVDGVEVHNAKTKPREEQFNSTYRVVSVLTVLHQDWLNGKEYKCKVSNKGLPSSIEKTISKAKGQPREPQVYTLPPCQEEMTKNQVSLWCLVKGFYPSDIAVEWESNGQPENNYKTTPPVLDSDGSFFLYSKLTVDKSRWQEGNVFSCSVMHEALHNHYTQKSLSLSLG
light 2: AIQMTQSPSSLSASVGDRVTITCRASQGIRNDLGWYQQKPGKAPKLLIYAASSLQSGVPSRFSGSGSGTDFTLTISGLQPEDSATYYCLQDYIYYPTFGQGTKVEIKRTVAAPSVFIFPPSDEQLKSGTASVVCLLNNFYPREAKVQWKVDNALQSGNSQESVTEQDSKDSTYSLSSTLTLSKADYEKHKVYACEVTHQGLSSPVTKSFNRGEC
notes: Trispecific antibody; also called BP # 9
B3: CD38hhy1195/CD28sup x CD3mid_ENLQ DKTHT IgG4 FALA (other)
light 1: B1 light 1
heavy 1: B1 heavy 1
heavy 2: QVQLVESGGGVVQPGRSLRLSCAASGFTFSSYGMYWVRQAPGKGLEWVAVIWYDGSNKYYADSVKGRFTISRDNSKNTLYLQMNSLRAEDTAVYHCARDPGLRYFDGGMDVWGQGTTVTVSSASTKGPSVFPLAPCSRSTSESTAALGCLVKDYFPEPVTVSWNSGALTSGVHTFPAVLQSSGLYSLSSVVTVPSSSLGTKTYTCNVDHKPSNTKVDKRVESKYGPPCPPCPAPEAAGGPSVFLFPPKPKDTLMISRTPEVTCVVVDVSQEDPEVQFNWYVDGVEVHNAKTKPREEQFNSTYRVVSVLTVLHQDWLNGKEYKCKVSNKGLPSSIEKTISKAKGQPREPQVYTLPPCQEEMTKNQVSLWCLVKGFYPSDIAVEWESNGQPENNYKTTPPVLDSDGSFFLYSKLTVDKSRWQEGNVFSCSVMHEALHNHYTQKSLSLSLG
light 2: DIQLTQSPSFLSASVGDRVTITCRASQGISSYLAWYQQKPGKAPKLLIFAASTLHSGVPSRFSGSGSGTEFTLTISSLQPEDFATYYCQQLNSFPYTFGQGTKLEIKRTVAAPSVFIFPPSDEQLKSGTASVVCLLNNFYPREAKVQWKVDNALQSGNSQESVTEQDSKDSTYSLSSTLTLSKADYEKHKVYACEVTHQGLSSPVTKSFNRGEC
notes: Trispecific antibody; also called BP # 8
B4: CD38hyb6284/CD28sup x CD3mid_ENLQ DKTHT IgG4 FALA (other)
light 1: B1 light 1
heavy 1: B1 heavy 1
heavy 2: QVQLLQSGAELVRPGVSVKISCTGSGYSFTNYAVHWVKQSHVKSLEWIGVISPYYGDTTYNQKFTGKATMTVDKSSSTAYMELARLTSEDSAIYFCARRFEGFYYSMDYWGQGTSVTVSSASTKGPSVFPLAPCSRSTSESTAALGCLVKDYFPEPVTVSWNSGALTSGVHTFPAVLQSSGLYSLSSVVTVPSSSLGTKTYTCNVDHKPSNTKVDKRVESKYGPPCPPCPAPEAAGGPSVFLFPPKPKDTLMISRTPEVTCVVVDVSQEDPEVQFNWYVDGVEVHNAKTKPREEQFNSTYRVVSVLTVLHQDWLNGKEYKCKVSNKGLPSSIEKTISKAKGQPREPQVYTLPPCQEEMTKNQVSLWCLVKGFYPSDIAVEWESNGQPENNYKTTPPVLDSDGSFFLYSKLTVDKSRWQEGNVFSCSVMHEALHNHYTQKSLSLSLG
light 2: DVVMIQTPLSLPVSLGDQASISCRPSQSLVHSNGNTYLNWYLQRPGQSPKLLIYKVSKRFSGVPDRFSGSGSGTDFTLKISRVEAEDLGVYLCSQSTHVPLTFGSGTQLEIKRTVAAPSVFIFPPSDEQLKSGTASVVCLLNNFYPREAKVQWKVDNALQSGNSQESVTEQDSKDSTYSLSSTLTLSKADYEKHKVYACEVTHQGLSSPVTKSFNRGEC
notes: Trispecific antibody; also called BP # 7
B5: CD38hhy992/CD28sup x CD3mid_ENLQ DKTHT IgG4 FALA (other)
light 1: B1 light 1
heavy 1: B1 heavy 1
heavy 2: QVQLVQSGAEVKKPGASVKVSCKVSGYTLTEFSIHWVRQAPGQGLEWMGGFDPEDGETIYAQKFQGRVIMTEDTSTDTAYMEMNSLRSEDTAIYYCTTGRFFDWFWGQGTLVTVSSASTKGPSVFPLAPCSRSTSESTAALGCLVKDYFPEPVTVSWNSGALTSGVHTFPAVLQSSGLYSLSSVVTVPSSSLGTKTYTCNVDHKPSNTKVDKRVESKYGPPCPPCPAPEAAGGPSVFLFPPKPKDTLMISRTPEVTCVVVDVSQEDPEVQFNWYVDGVEVHNAKTKPREEQFNSTYRVVSVLTVLHQDWLNGKEYKCKVSNKGLPSSIEKTISKAKGQPREPQVYTLPPCQEEMTKNQVSLWCLVKGFYPSDIAVEWESNGQPENNYKTTPPVLDSDGSFFLYSKLTVDKSRWQEGNVFSCSVMHEALHNHYTQKSLSLSLG
light 2: EIILTQSPAILSLSPGERATLSCRASQSVISRFLSWYQVKPGLAPRLLIYGASTRATGIPVRFSGSGSGTDFSLTISSLQPEDCAVYYCQQDSNLPITFGQGTRLEIKRTVAAPSVFIFPPSDEQLKSGTASVVCLLNNFYPREAKVQWKVDNALQSGNSQESVTEQDSKDSTYSLSSTLTLSKADYEKHKVYACEVTHQGLSSPVTKSFNRGEC
notes: Trispecific antibody; also called BP # 5′

These binders were tested against T2, Human CD38-His (human, UniProt P28907 43-300, limits assumed) (assay: SPR (BIACORE 3000), capture format, 1:1 Langmuir model).
T2 construct: Bought antigen; also called human CD38 (SPR antigen); not shown: His tag

Kd	koff	kon	Binder
2.85 nM	0.00158 s⁻¹	555000 M⁻¹ s⁻¹	B1
0.876 nM	0.000329 s⁻¹	376000 M⁻¹ s⁻¹	B2
14.2 nM	0.018 s⁻¹	1.27e+06 M⁻¹ s⁻¹	B3
0.652 nM	0.000512 s⁻¹	785000 M⁻¹ s⁻¹	B4
0.129 nM	0.000175 s⁻¹	1.35e+06 M⁻¹ s⁻¹	B5

What follows are binders tested against T3, human CD38 on tumor cell lines NCI-H929 (CD38+/CD28+) and OCI-LY19 (CD38+/CD28-) (human, UniProt P28907 1-300) (assay: cell-based or functional assay).

Binder	EC50 of in vitro killing of NCI-H929 (CD38+/CD28+) cells, With Dara	EC50 of in vitro killing of NCI-H929 (CD38+/CD28+) cells, With human IgG1
B1	0.0298 nM	0.00106 nM
B2	0.255 nM	0.0096 nM
B3	0.0893 nM	0.017 nM
B4	0.0336 nM	0.00437 nM
B5	0.126 nM	0.0134 nM

These binders were tested against T4, human CD38 (human, UniProt P28907 43-300, limits assumed) (assay: ELISA, antigen-coated plate).
T4 construct: also called hCD38; huCD38
Procedure: (§1) Binding affinities to each target antigen by the CD38/CD28×CD3 T cell engagers were measured by ELISA. Briefly, each antigen was used to coat the 96-well Immuno Plate (Thermo Fisher Scientific) overnight at 4° C. using 200 ng/well in PBS (pH7.4) of each antigen. The coated plate was blocked using 5% skim milk+2% BSA in PBS for one hour at RT, followed by washing with PBS+0.25% Tween 20 three times (Aqua Max 400, Molecular Devices). Serial dilution of antibodies (trispecific and control Abs) were prepared and added onto the ELISA plates (100 μl/well in duplicate), incubated at room temperature (RT) for one hour, followed by washing 5 times with PBS+0.25% Tween 20. […] The reaction was terminated by adding 50 μl 1M H₂SO₄, and OD450 was measured using SpectraMax M5 (Molecular Devices) and analyzed using SoftMax Pro6.3 software (Molecular Devices). The final data was transferred to GraphPad Prism software (GraphPad Software, CA, USA), and plotted. EC50 was calculated using the same software.
(§2) The binding affinities of selected CD38/CD28sup×CD3mid_ENLQ DKTHT IgG4 FALA trispecific antibodies with alternative anti-CD38 binding domains for human CD3, human CD28, human CD38 and cynomolgus monkey CD38 were then determined by ELISA as described above.

EC50	Binder
7.24 nM	B1
0.587 nM	B2
103 nM	B3
0.253 nM	B4
0.229 nM	B5

Target: T1, Human CD3
Assay: ELISA, antigen-coated plate
Procedure: as §1, §2

EC50	Binder
6.74 nM	B1
25 nM	B2
7.63 nM	B3
8.22 nM	B4
33.6 nM	B5

The binders below were run against T5, cynomolgus monkey CD38 (cynomolgus monkey, UniProt Q5VAN0 44-301, limits assumed) (assay: ELISA, antigen-coated plate).
T5 construct: also called Cyno CD38; cynoCD38
Procedure: as §1, §2

EC50	Binder
2.13 nM	B1
0.553 nM	B2
37.7 nM	B3
0.29 nM	B4
0.912 nM	B5

The binders below were run against T6, Human CD28 (human, UniProt P10747 19-152, limits assumed) (assay: ELISA, antigen-coated plate).
T6 construct: also called hCD28
Procedure: as §1, §2

EC50	Binder
0.725 nM	B1
1.26 nM	B2
0.697 nM	B3
0.711 nM	B4
0.809 nM	B5

Target: T3, human CD38 on tumor cell lines NCI-H929 …
Assay: cell-based or functional assay
Remark: another data set of the same source

Binder	EC50 of in vitro killing of OCI-LY19 (CD38+/CD28-) cells, With Dara	EC50 of in vitro killing of OCI-LY19 (CD38+/CD28-) cells, With human IgG1
B1	0.136 nM	0.00566 nM
B2	0.21 nM	0.0585 nM
B3	0.715 nM	0.296 nM
B4	0.081 nM	0.0421 nM
B5	0.133 nM	0.0573 nM
